These results are taken from paper PMC2132682.

In the assay the target is GST-NRX (cytoplasmic domain of Neurexin) (Drosophila) (UniProt Q94887). Kind of assay: pull-down.
UniProt Q94887, sequence (Q94887 1239-1284): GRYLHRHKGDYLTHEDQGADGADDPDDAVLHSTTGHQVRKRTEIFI

“32P-labeled Coracle (cDNA3 isoform, recombinant) (natural protein)”: the % relative binding was found to be 100%.
“unlabeled Coracle (cDNA3 isoform, recombinant) (natural protein)” had a % relative binding of 32P-COR to NRX with the competitor of 36.6%.
